The supplement of paper PMC10126150
± gives the standard deviation of the averaged measurements.

Tested on: ATP
Assay: switch fluorescence ratio, 500 uM ATP over buffer (Cy3 cluster intensity, sum of 5 cycles each) (fold (ratio)); higher = stronger signal-on switching upon ATP binding; sequences stand for … in TCGTCGGCAGCGTCAGATGTGTATAAGAGACAGTTTTTTTTTTTTTTTTTTTTTTTTT…TC
Conditions: aptamer strand: ATP DNA aptamer (quencher-CACCTGGGGGAGTATTGCGGAGGAAGG + anchor), 100 nM annealed; ATP concentration: 500 uM
Outline: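 Five buffer/ATP imaging cycles were run on Cy3-labelled switching-strand clusters on a modified Illumina MiSeq flow-cell, with NaOH stripping and re-annealing between cycles. In each cycle, clusters annealed to 100 nM quencher-labelled ATP aptamer were imaged in selection buffer, then after 15 min with 500 uM ATP at 22 °C. Per cluster, the fluorescence ratio is summed target-cycle over summed buffer-cycle Cy3 intensity, averaged per switch-domain sequence. Only clusters within 100-1000 RFU were kept.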
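Note: ATP exposure 15 min at 22 °C before imaging.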

| Sequence | switch fluorescence ratio |
| --- | --- |
| ATTTTCAGGG | 0.998 ± 0.067 |
| GGGATTACGG | 0.9899 ± 0.0051 |
| TTTTAAGCAA | 1.53 ± 0.17 |
| CTCTCGAAGC | 1.1577 ± 0.0001 |
| CACCTTACTT | 1.26 ± 0.062 |
| CATACATCCG | 1.07 ± 0.038 |
| GGCTTAAGTA | 0.9833 ± 0.0084 |
| AGGTGTGAGA | 1.06 ± 0.044 |
| TGGATCTTCG | 0.9903 ± 0.0077 |
| AAGGGTTGGC | 0.983 ± 0.094 |
| CCGTATAGCT | 1.24 ± 0.039 |
| AATGTTTTTG | 1.02 ± 0.046 |
| TGGGGGAGCG | 0.99 ± 0.019 |
| AGTACTAAAG | 1.01 ± 0.033 |
| TAAGCTGTGG | 1.02 ± 0.028 |
| TTCCAGTTGG | 1.04 ± 0.037 |
| GGCGATTGGA | 1 ± 0.016 |
| CTGGGTTTGG | 1 ± 0.025 |
| AGCTGGAACA | 1 ± 0.018 |
| TGTGGTCGGT | 1.015 ± 0.007 |
| AAATAAATTT | 1.01 ± 0.055 |
| TTCAATACCG | 1.09 ± 0.025 |
| AAAATTTGGT | 1.04 ± 0.029 |

| Sequence | switch fluorescence ratio |
| --- | --- |
| GGGTTGAATG | 0.978 ± 0.014 |
| TTTTTGTTGC | 1.02 ± 0.02 |
| CGGGTTTAAC | 0.998 ± 0.021 |
| TAGGTCTTAA | 0.995 ± 0.013 |
| TGGTGTCAGC | 1.02 ± 0.013 |
| GATGTAAACC | 1.01 ± 0.02 |
| AAGCGCATTT | 1.05 ± 0.029 |
| CGGGGTGAGG | 0.997 ± 0.014 |
| TTGACAAGAT | 1.28 ± 0.39 |
| TATCTGGGTA | 0.978 ± 0.01 |
| ATATGCTGTA | 0.989 ± 0.032 |
| GCTTCCTCTA | 1.74 ± 1 |
| TGAGTGCTGG | 0.9741 ± 0.0017 |
| GAAATAAGTG | 1.04 ± 0.026 |
| TGTTTAAGGT | 0.9871 ± 0.0045 |
| GGTATCGGTA | 1.005 ± 0.0094 |
| TTTTGTTGAG | 1 ± 0.035 |
| ATGTGGGGTA | 0.985 ± 0.026 |
| TCGCGATCAG | 1.12 ± 0.042 |
| GCTATATTTG | 1.01 ± 0.013 |
| TTAAAGTTTT | 1.01 ± 0.032 |
| TAATTTATCG | 1.04 ± 0.038 |
| TTTGCAGT | 1.1 ± 0.12 |

| Sequence | switch fluorescence ratio |
| --- | --- |
| CGTTCAATTA | 0.996 ± 0.027 |
| CAACCGGGAA | 1.1 ± 0.021 |
| GGTTTTGGCC | 1.02 ± 0.03 |
| CATTAATAGT | 0.98 ± 0.031 |
| TTATTCGCAA | 4.457 ± 0.044 |
| AACTTGAGAA | 1.01 ± 0.012 |
| GTGCAGGTGC | 1.37 ± 0.026 |
| TTTATGAGCG | 0.973 ± 0.028 |
| ATATTTTTTA | 0.9761 ± 0.0095 |
| GGTAATTTTT | 1.01 ± 0.034 |
| AATCGTCTTG | 0.97 ± 0.034 |
| TGCGAAGGAG | 0.9794 ± 0.0063 |
| TGTTACTACG | 1.0494 ± 0.00016 |
| CTGGGGCGGG | 0.996 ± 0.057 |
| AGTCTAAATA | 1.02 ± 0.02 |
| GCGAGTTTGC | 1.02 ± 0.017 |
| ATGGAATTGT | 0.986 ± 0.022 |
| TACGATGTGC | 1.0053 ± 0.00075 |
| GGTTTTTGTC | 1.01 ± 0.013 |
| TTTTTTCGAG | 1 ± 0.05 |
| GTTTTTTAAT | 1.015 ± 0.0061 |
| TAGGCCCTTG | 1.01 ± 0.043 |
| ATCCCCGGCC | 1.03 ± 0.022 |

| Sequence | switch fluorescence ratio |
| --- | --- |
| TTATTAGTCA | 0.986 ± 0.041 |
| GGGAGGAAGC | 0.99 ± 0.0049 |
| CGTAGCTTAG | 1.25 ± 0.13 |
| AGAGTGGCAG | 1.01 ± 0.021 |
| TTTTTTACCC | 1.01 ± 0.028 |
| TTATTTTTGC | 1.01 ± 0.042 |
| ACGAATAAGG | 1.03 ± 0.021 |
| CGGCCCCCGT | 1.4 ± 0.46 |
| GGGCATTTTG | 0.998 ± 0.015 |
| ATAGCTGGTT | 0.991 ± 0.018 |
| CGTGTTAATG | 0.989 ± 0.037 |
| AGGAATTCCG | 0.992 ± 0.054 |
| AATGTAGTTG | 1.02 ± 0.027 |
| AGGGGCTTCT | 1.06 ± 0.028 |
| GCGGGTGACC | 1.02 ± 0.034 |
| TGGCACCTTT | 1.11 ± 0.036 |
| TTAAAGAGGG | 0.974 ± 0.054 |
| GAAGAGATGT | 1.01 ± 0.021 |
| TCAGGGTGCT | 1.1 ± 0.029 |
| TGGACCGGGG | 1.016 ± 0.0034 |
| GATGGGCTAG | 0.997 ± 0.025 |
| TTAGTATGTT | 1 ± 0.035 |
| AGGCGGATGT | 0.978 ± 0.016 |

| Sequence | switch fluorescence ratio |
| --- | --- |
| ATTAAGGGGT | 1.07 ± 0.12 |
| GCGGGACTTG | 1.03 ± 0.029 |
| TAGTCTATCG | 0.969 ± 0.025 |
| CAGGTGGAGA | 1.0094 ± 0.00078 |
| TTTTACGTCA | 1.21 ± 0.073 |
| AAAGTTAATA | 0.9897 ± 0.0064 |
| GTCACCTTGA | 1.01 ± 0.014 |
| TAGGGGTAGC | 0.985 ± 0.04 |
| CATCTGGGCC | 1.01 ± 0.022 |
| GGGAAGCATG | 1.02 ± 0.022 |
| AATTGTTGCG | 0.974 ± 0.015 |
| TATTAAGAAA | 0.962 ± 0.016 |
| CGGAGAAAGG | 1.03 ± 0.069 |
| CTAGAAGCGG | 0.983 ± 0.013 |
| TCATGTATGG | 0.977 ± 0.012 |
| ACATACGAAC | 1.38 ± 0.098 |
| GACTGTAAAG | 0.967 ± 0.089 |
| AGGAGCAAGG | 1.26 ± 0.072 |
| CAAATGAAAG | 1.004 ± 0.0058 |
| CGATTTTCAT | 0.988 ± 0.013 |
| CCGCCTTGGG | 1.09 ± 0.029 |
| CAATTTGTGC | 1.02 ± 0.1 |
| CGCTTATCAT | 0.98 ± 0.03 |

| Sequence | switch fluorescence ratio |
| --- | --- |
| CGATTTTGGC | 0.962 ± 0.049 |
| TGAGGGCAGC | 0.993 ± 0.026 |
| AAGGTTGGTT | 0.983 ± 0.068 |
| GCGGGGGAAT | 1.05 ± 0.071 |
| GGAGGAACAT | 1.02 ± 0.016 |
| TGGAAGGGTT | 0.994 ± 0.028 |
| TTCGTTATGT | 0.98 ± 0.027 |
| TTGAGTACTT | 0.988 ± 0.025 |
| CGCGATTATT | 1.09 ± 0.04 |
| TGATTTTGGC | 1.01 ± 0.017 |
| TATTAAGG | 1.01 ± 0.011 |
| AGGATAGGGG | 0.991 ± 0.026 |
| AGGCGTTTAG | 1.03 ± 0.059 |
| TCACTCTATC | 1.0455 ± 0.00057 |
| TAAGCAGTTT | 1.038 ± 0.0027 |
| ATATTGTTTT | 1.02 ± 0.019 |
| ATATATTTGT | 1.008 ± 0.0041 |
| GGCGGCATGG | 1.04 ± 0.023 |
| GGGGGGGTTT | 1.01 ± 0.074 |
| ATAGGGGTT | 1.021 ± 0.005 |
| CAATACGGGG | 1.13 ± 0.085 |
| CGGAGAAGTT | 1 ± 0.015 |
| TGGCGGTGGC | 0.9806 ± 0.006 |

| Sequence | switch fluorescence ratio |
| --- | --- |
| TAACATGAAG | 1.004 ± 0.0073 |
| TTTTGTTCAC | 1.01 ± 0.017 |
| CGAGGGGATA | 1.04 ± 0.051 |
| GGGTACGTGT | 0.989 ± 0.029 |
| AATAGGGTCG | 0.975 ± 0.064 |
| AAGTTTTTTC | 1.012 ± 0.0053 |
| TTGTGAGGGG | 0.988 ± 0.022 |
| GCATCATTTA | 1.009 ± 0.0059 |
| GGATTCAGCT | 0.978 ± 0.027 |
| TGGGTAGGTT | 1.06 ± 0.035 |
| GTTACTTGTA | 0.978 ± 0.025 |
| AGAAGCCCAC | 1.09 ± 0.019 |
| AGTCACGTAG | 1.03 ± 0.019 |
| GGTTAATCGT | 0.98228 ± 0.00062 |
| AGTTTTCCAT | 1.0004 ± 0.00055 |
| GACGAGTGTG | 0.98731 ± 0.00011 |
| TAAGGTCGGT | 0.966 ± 0.018 |
| GGTGTTCTGT | 0.9665 ± 0.0089 |
| GAGTGGAGGC | 1.03 ± 0.05 |
